Laboratory results as given in the Immune Epitope Database (IEDB).

What was measured:
HLA-B*07:02 [1] = assay: IEDB peptide-MHC binding, purified MHC/competitive/fluorescence; ≥ and ≤ were set here for values at or beyond the usual limits of such assays; settings: source organism: Callithrix jacchus
HLA-B*53:01 = assay: as above; settings: source organism: Callithrix jacchus
HLA-A*01:01 = assay: IEDB peptide-MHC binding, purified MHC/direct/fluorescence; filed as Kd, often an IC50 or EC50 that approximates it; ≥ and ≤ were set here for values at or beyond the usual limits of such assays; settings: source organism: Influenza A virus (A/swine/Chiai/77-10/2001(H3N1))
HLA-A*02:01 [2] = assay: as above; settings: source organism: Influenza A virus (A/swine/Chiai/77-10/2001(H3N1))
HLA-A*03:01 [3] = assay: as above; settings: source organism: Influenza A virus (A/swine/Chiai/77-10/2001(H3N1))
HLA-A*26:01 [4] = assay: as above; settings: source organism: Influenza A virus (A/turkey/NC/17026/1988(H1N1))
HLA-A*31:01 = assay: as above; settings: source organism: Influenza A virus (A/swine/Chiai/77-10/2001(H3N1))
HLA-A*69:01 [5] = assay: as above; settings: source organism: Influenza A virus (A/swine/Chiai/77-10/2001(H3N1))
HLA-B*07:02 [6] = assay: as above; settings: source organism: Influenza A virus (A/swine/Chiai/77-10/2001(H3N1))
HLA-B*08:01 = assay: as above; settings: source organism: Influenza A virus (A/turkey/NC/17026/1988(H1N1))
HLA-B*08:02 = assay: as above; settings: source organism: Influenza A virus (A/turkey/NC/17026/1988(H1N1))
HLA-B*15:01 [7] = assay: as above; settings: source organism: Influenza A virus (A/swine/Chiai/77-10/2001(H3N1))
HLA-B*15:09 = assay: as above; settings: source organism: Influenza A virus (A/turkey/NC/17026/1988(H1N1))
HLA-B*15:17 [8] = assay: as above; settings: source organism: Influenza A virus (A/swine/Chiai/77-10/2001(H3N1))
HLA-B*18:01 [9] = assay: as above; settings: source organism: Influenza A virus (A/swine/Chiai/77-10/2001(H3N1))
HLA-B*27:05 = assay: as above; settings: source organism: Influenza A virus (A/swine/Chiai/77-10/2001(H3N1))
HLA-B*39:01 [10] = assay: as above; settings: source organism: Influenza A virus (A/turkey/NC/17026/1988(H1N1))
HLA-B*40:01 = assay: as above; settings: source organism: Influenza A virus (A/swine/Chiai/77-10/2001(H3N1))
HLA-B*46:01 [11] = assay: as above; settings: source organism: Influenza A virus (A/swine/Chiai/77-10/2001(H3N1))
HLA-B*48:01 = assay: as above; settings: source organism: Influenza A virus (A/swine/Chiai/77-10/2001(H3N1))
HLA-B*57:01 [12] = assay: as above; settings: source organism: Influenza A virus (A/swine/Chiai/77-10/2001(H3N1))
HLA-B*58:01 = assay: as above; settings: source organism: Influenza A virus (A/swine/Chiai/77-10/2001(H3N1))
HLA-A*11:01 = assay: IEDB peptide-MHC binding, purified MHC/competitive/fluorescence; filed as Kd, often an IC50 or EC50 that approximates it; ≥ and ≤ were set here for values at or beyond the usual limits of such assays; settings: source organism: Influenza A virus
HLA-A*80:01 = assay: as above; settings: source organism: Influenza A virus
HLA-A*23:01 = assay: as above
HLA-A*02:01 [13] = assay: as above; settings: source organism: Mycobacterium tuberculosis C
HLA-A*02:03 = assay: as above; settings: source organism: Mycobacterium tuberculosis C
HLA-A*02:11 = assay: as above; settings: source organism: Mycobacterium tuberculosis C
HLA-A*02:12 = assay: as above; settings: source organism: Mycobacterium tuberculosis C
HLA-A*02:16 = assay: as above; settings: source organism: Mycobacterium tuberculosis C
HLA-A*02:19 = assay: as above; settings: source organism: Mycobacterium tuberculosis C
HLA-A*03:01 [14] = assay: as above; settings: source organism: Mycobacterium tuberculosis C
HLA-A*24:03 = assay: as above; settings: source organism: Mycobacterium tuberculosis C
HLA-A*26:01 [15] = assay: as above; settings: source organism: Mycobacterium tuberculosis C
HLA-A*29:02 = assay: as above; settings: source organism: Mycobacterium tuberculosis C
HLA-A*68:02 = assay: as above; settings: source organism: Mycobacterium tuberculosis C
HLA-A*69:01 [16] = assay: as above; settings: source organism: Mycobacterium tuberculosis C
HLA-B*15:01 [17] = assay: as above; settings: source organism: Mycobacterium tuberculosis C
HLA-B*15:17 [18] = assay: as above; settings: source organism: Mycobacterium tuberculosis C
HLA-B*18:01 [19] = assay: as above; settings: source organism: Mycobacterium tuberculosis C
HLA-B*27:03 = assay: as above; settings: source organism: Mycobacterium tuberculosis C
HLA-B*39:01 [20] = assay: as above; settings: source organism: Mycobacterium tuberculosis C
HLA-B*46:01 [21] = assay: as above; settings: source organism: Mycobacterium tuberculosis C
HLA-B*51:01 = assay: as above; settings: source organism: Mycobacterium tuberculosis C
HLA-B*57:01 [22] = assay: as above; settings: source organism: Mycobacterium tuberculosis C

VPIAWAAA
0.144 µM: IC50 (HLA-B*07:02 [1])
≥ 20 µM: IC50 (HLA-B*53:01)

VSFDQNLDY
≥ 20 µM: Kd (HLA-A*02:01 [2]) | Kd (HLA-A*26:01 [4]) | Kd (HLA-A*31:01) | Kd (HLA-A*69:01 [5]) | Kd (HLA-B*07:02 [6]) | Kd (HLA-B*08:01) | Kd (HLA-B*08:02) | Kd (HLA-B*15:09) | Kd (HLA-B*18:01 [9]) | Kd (HLA-B*27:05) | Kd (HLA-B*39:01 [10]) | Kd (HLA-B*40:01) | Kd (HLA-B*46:01 [11]) | Kd (HLA-B*48:01) | Kd (HLA-B*57:01 [12])
3.44 µM: Kd (HLA-B*58:01)
6.5 µM: Kd (HLA-A*03:01 [3])
0.117 µM: Kd (HLA-A*01:01)
0.019 µM: Kd (HLA-B*15:01 [7])
0.0184 µM: Kd (HLA-A*80:01)
0.0987 µM: Kd (HLA-A*11:01)
0.0016 µM: Kd (HLA-B*15:17 [8])

SYHNVDQLK
≥ 20 µM: Kd (HLA-A*23:01; source organism: Vibrio parahaemolyticus K5030)

SLVAIHLAC
0.443 µM: Kd (HLA-A*02:11)
≥ 20 µM: Kd (HLA-A*02:01 [13]) | Kd (HLA-A*02:03) | Kd (HLA-A*02:12) | Kd (HLA-A*02:16) | Kd (HLA-A*02:19) | Kd (HLA-A*03:01 [14]) | Kd (HLA-A*23:01; source organism: Mycobacterium tuberculosis C) | Kd (HLA-A*24:03) | Kd (HLA-A*26:01 [15]) | Kd (HLA-A*29:02) | Kd (HLA-A*68:02) | Kd (HLA-A*69:01 [16]) | Kd (HLA-B*15:01 [17]) | Kd (HLA-B*15:17 [18]) | Kd (HLA-B*18:01 [19]) | Kd (HLA-B*27:03) | Kd (HLA-B*39:01 [20]) | Kd (HLA-B*46:01 [21]) | Kd (HLA-B*51:01) | Kd (HLA-B*57:01 [22])
